From patent US20260209376A1 (University of California, published 2026) come the findings set out here.

By EC50 (read off the curve) is commonly meant the concentration that produces a half-maximal response.

Test [1] concerns the target T1, human TfR1 on the cell surface (KMS-11 or MM.1S human MM cells) (human, UniProt P02786 1-760).
T1 construct: whole, on cells; also called human cells expressing the TfR1; CD71
In words: flow cytometry on MM.1S cells, 2 ug antibody, PE anti-human kappa detection. As for the experimental part: (§1) KMS-11 cells (Namba et al., In Vitro Cell. Dev. Biol. 25(8):723-729 (1989)), a kind gift from Dr. Lawrence Boise (Emory University, Atlanta, GA, USA), and MM.1S cells (Greenstein et al., Exp. Hematol., 31(4):271-282 (2003)), purchased from the American Type Culture Collection (ATCC, Manassas, VA, USA; ATCC® CRL-2974T”) human MM cells were incubated with 2 μg of humanized antibodies or the control antibodies (ch128.1 as a positive control or a negative isotype control IgG1) for 2 hours on ice. Binding was detected using a PE-conjugated anti-human κ antibody. Samples were analyzed on an LSRII analytical flow cytometer (BD Biosciences, San Jose, CA, USA) and 10,000 events were collected. Histograms were created using the […] Version 3 (De Novo Software, Glendale, CA, USA).
(In general: A flow cytometer gives signals particle by particle.)

The target in test [2] is T2, cynomolgus monkey (Macaca fascicularis) soluble TfR1 (sCD71) (cynomolgus monkey (Macaca fascicularis), UniProt H9EXL1 89-760 (rhesus entry)).
T2 construct: extracellular domain; also called cynomolgus monkey TfR1; cynomolgus monkey sCD71
T2 sequence (chain, as listed by the source): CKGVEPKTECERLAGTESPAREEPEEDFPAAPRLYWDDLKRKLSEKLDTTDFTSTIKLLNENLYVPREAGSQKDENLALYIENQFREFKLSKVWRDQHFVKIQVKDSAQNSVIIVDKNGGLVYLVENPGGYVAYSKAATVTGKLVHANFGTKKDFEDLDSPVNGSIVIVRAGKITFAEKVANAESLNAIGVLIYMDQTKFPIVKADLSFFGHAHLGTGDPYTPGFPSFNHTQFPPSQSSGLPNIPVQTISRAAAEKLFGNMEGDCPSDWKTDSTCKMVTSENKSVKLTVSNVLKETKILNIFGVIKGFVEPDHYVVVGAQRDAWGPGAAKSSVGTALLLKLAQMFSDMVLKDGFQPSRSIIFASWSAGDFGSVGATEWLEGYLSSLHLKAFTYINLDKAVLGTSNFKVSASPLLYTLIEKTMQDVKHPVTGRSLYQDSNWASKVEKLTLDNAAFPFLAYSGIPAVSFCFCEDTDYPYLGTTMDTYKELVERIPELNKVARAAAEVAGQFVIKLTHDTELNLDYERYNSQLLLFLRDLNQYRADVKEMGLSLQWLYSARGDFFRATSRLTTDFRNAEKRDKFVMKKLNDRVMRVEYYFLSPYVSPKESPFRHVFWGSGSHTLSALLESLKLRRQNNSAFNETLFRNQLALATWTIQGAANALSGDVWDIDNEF
In words: ELISA, plate coated with soluble cynomolgus monkey TfR1 (Sino Biological), 2-fold antibody dilutions, AP anti-human kappa detection, A405. As for the experimental part:
(§2) Immulon-H2B plates (Thermo Fisher Scientific, Inc.) were coated overnight at 4° C. with soluble 5 μg/mL TfR1 (sCD71) in 50 mM carbonate/bicarbonate buffer, pH 9.3. Human sCD71 was obtained from either Cal Tech (California Institute of Technology, Pasadena, CA, USA) or Kerafast, Inc., while cynomolgus monkey (Macaca fascicularis) sCD71 was purchased from Sino Biological, Inc. (Wayne, PA, USA). Plates were washed with PBS and blocked with 3% BSA in PBS. Serial 2-fold dilutions of antibodies (200-3.12 ng/mL) were added to the plate in duplicates and incubated overnight at 4° C. Binding was detected with an AP-conjugated goat anti-human κ antibody (MilliporeSigma) and AP substrate, p-nitrophenyl phosphate disodium (MilliporeSigma), dissolved in diethanolamine buffer (9.6% diethanolamine (v/v), 0.24 mM MgCl₂ in water, pH 9.8). Plates were read at absorbance 405 nm using a FilterMax F5 multi-mode microplate reader (Molecular Devices, Sunnyvale, CA, USA).
A general note: ELISA stands for enzyme-linked immunosorbent assay.

Test [3] addresses T3, soluble human TfR1 (sCD71) (human, UniProt P02786 89-760).
T3 construct: extracellular domain; Two sources (Cal Tech, Kerafast) are kept as one molecule; also called Human sCD71; transferrin receptor 1
Briefly: ELISA, plate coated with soluble human TfR1 (Kerafast), 2-fold antibody dilutions, AP anti-human kappa detection, A405. As for the experimental part: as §2

The target of test [4] is T3, soluble human TfR1 (sCD71). In words: ELISA, soluble human TfR1; semi-quantitative grade.
Test [5] has as its target T1, human TfR1 on the cell surface (KMS-11 …). In words: flow cytometry on KMS-11 cells; semi-quantitative grade. The procedure: as §1

T3 sequence (P02786 89-760): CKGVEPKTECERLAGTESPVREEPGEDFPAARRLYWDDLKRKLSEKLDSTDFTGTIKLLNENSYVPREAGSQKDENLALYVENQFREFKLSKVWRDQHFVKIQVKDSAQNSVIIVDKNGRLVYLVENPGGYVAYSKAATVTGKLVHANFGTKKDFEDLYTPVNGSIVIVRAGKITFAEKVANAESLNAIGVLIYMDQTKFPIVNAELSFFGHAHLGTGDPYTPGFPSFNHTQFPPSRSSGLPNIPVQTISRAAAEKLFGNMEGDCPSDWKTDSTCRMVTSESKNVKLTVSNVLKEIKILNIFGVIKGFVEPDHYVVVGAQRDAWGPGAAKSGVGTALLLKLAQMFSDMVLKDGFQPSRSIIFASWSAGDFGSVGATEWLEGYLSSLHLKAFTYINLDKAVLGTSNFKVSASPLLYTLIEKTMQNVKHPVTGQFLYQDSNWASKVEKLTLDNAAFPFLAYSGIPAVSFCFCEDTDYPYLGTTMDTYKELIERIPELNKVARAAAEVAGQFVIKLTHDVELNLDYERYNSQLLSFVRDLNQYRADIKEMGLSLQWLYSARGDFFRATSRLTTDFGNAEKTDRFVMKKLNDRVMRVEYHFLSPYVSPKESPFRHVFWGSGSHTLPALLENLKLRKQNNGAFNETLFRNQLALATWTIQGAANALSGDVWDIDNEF
T1 sequence (P02786 whole entry): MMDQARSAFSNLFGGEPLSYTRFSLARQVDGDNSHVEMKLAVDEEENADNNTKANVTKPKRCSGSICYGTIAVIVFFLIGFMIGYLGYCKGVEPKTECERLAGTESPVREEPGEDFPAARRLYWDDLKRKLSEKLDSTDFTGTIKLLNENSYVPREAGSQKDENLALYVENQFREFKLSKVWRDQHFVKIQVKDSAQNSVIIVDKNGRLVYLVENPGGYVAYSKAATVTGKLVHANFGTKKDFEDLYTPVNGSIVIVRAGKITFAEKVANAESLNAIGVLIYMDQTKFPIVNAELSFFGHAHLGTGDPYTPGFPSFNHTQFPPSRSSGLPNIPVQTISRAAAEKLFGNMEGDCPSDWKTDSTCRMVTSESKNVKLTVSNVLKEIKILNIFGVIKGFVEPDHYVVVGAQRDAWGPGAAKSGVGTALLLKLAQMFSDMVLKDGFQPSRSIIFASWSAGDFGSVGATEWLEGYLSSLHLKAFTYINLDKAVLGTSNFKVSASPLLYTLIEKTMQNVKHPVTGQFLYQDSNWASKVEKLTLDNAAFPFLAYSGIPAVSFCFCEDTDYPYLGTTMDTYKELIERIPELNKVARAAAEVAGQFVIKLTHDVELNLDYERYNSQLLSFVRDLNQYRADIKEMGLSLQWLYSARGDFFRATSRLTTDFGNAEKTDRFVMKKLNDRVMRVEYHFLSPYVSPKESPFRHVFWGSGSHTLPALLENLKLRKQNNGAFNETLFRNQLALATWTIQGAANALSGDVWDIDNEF

B1: ch128.1 (antibody, human IgG1, V domains shown)
VH: EVQLQQSGPELVKPGASMKISCKASGYSFTGYTMNWVKQSHGENLEWIGRINPHNGGTDYNQKFKDKAPLTVDKSSNTAYMELLSLTSGDSAVYYCARGYYYYSLDYWGQGTSVTVSS
VL: QIVLTQSPAIMSVSPGEKVTMTCSASSSIRYIHWYQQRPGTSPKRWIYDTSNLASGVPARFSGSGSGTSYSLTISSMEAEDAATYYCHQRNSYPWTFGGGTRLEIR
notes: mouse 128.1 V regions; also called chimeric antibody; parental chimeric antibody
Regarding B1, the binding result in test [1] is “binds”. In addition, in test [2], the “EC50 (read off the curve)” value is ~0.03 µg/mL.

B2: H6L7 (antibody, human IgG1, V domains shown)
VH: EVQLVQSGAEVKKPGESLKISCKGSGYSFTGYTMNWVRQMPGKGLEWMGRINPHNGGTDYNQKFKDQVTISADKSISTAYLQWSSLKASDTAMYYCARGYYYYSLDYWGQGTLVTVSS
VL: EIVLTQSPATLSLSPGERATLSCSASSSIRYIHWYQQKPGQAPRRWIYDTSNLASGTPARFSGSGSGTSYSLTISSLEPEDFAVYYCHQRNSYPWTFGQGTKVEIK
notes: humanized; also called hu128.1
As for B2, the binding result in test [1] and in test [3] was “binds” in each case. The “EC50 (read off the curve)” value in test [2] is ~0.03 µg/mL.

B3: H8L7 (antibody, human IgG1, V domains shown)
VH: QVQLVESGGGVVQPGRSLRLSCAASGYSFTGYTMNWVRQAPGNGLEWVARINPHNGGTDYNQKFKDRFTISRDNSKNTLYLQMNSLRAEDTAVYYCARGYYYYSLDYWGQGTTVTVSS
VL: EIVLTQSPATLSLSPGERATLSCSASSSIRYIHWYQQKPGQAPRRWIYDTSNLASGTPARFSGSGSGTSYSLTISSLEPEDFAVYYCHQRNSYPWTFGQGTKVEIK
notes: as for B2
With B3, the binding result in test [4] and in test [5] was “binds” in each case.

B4: H6L8 (antibody, human IgG1, V domains shown)
VH: EVQLVQSGAEVKKPGESLKISCKGSGYSFTGYTMNWVRQMPGKGLEWMGRINPHNGGTDYNQKFKDQVTISADKSISTAYLQWSSLKASDTAMYYCARGYYYYSLDYWGQGTLVTVSS
VL: EIVLTQSPDFQSVTPKEKVTITCSASSSIRYIHWYQQRPDQSPKRWIYDTSNLASGVPSRFSGSGSGTSYSLTINSLEAEDAATYYCHQRNSYPWTFGQGTKVEIK
notes: as for B2
For the molecule B4, the binding result in test [4] and in test [5] was “binds” throughout.

B5: H8L9 (antibody, human IgG1, V domains shown)
VH: QVQLVESGGGVVQPGRSLRLSCAASGYSFTGYTMNWVRQAPGNGLEWVARINPHNGGTDYNQKFKDRFTISRDNSKNTLYLQMNSLRAEDTAVYYCARGYYYYSLDYWGQGTTVTVSS
VL: EIVLTQSPATLSLSPGERATLSCSASSSIRYIHWYQQKPGQAPRRWIYDTSNLASGTPARFSGSGSGTDFTLTISSLEPEDFAVYYCHQRNSYPWTFGQGTKVEIK
notes: as for B2
Take B5: the binding result in test [1] and in test [3] was “binds” each time. For the same molecule, in test [2], the “EC50 (read off the curve)” value was ~0.04 µg/mL.

B6: H6L11 (antibody, human IgG1, V domains shown)
VH: EVQLVQSGAEVKKPGESLKISCKGSGYSFTGYTMNWVRQMPGKGLEWMGRINPHNGGTDYNQKFKDQVTISADKSISTAYLQWSSLKASDTAMYYCARGYYYYSLDYWGQGTLVTVSS
VL: EIVLTQSPATLSLSPGERATLSCSASSSIRYIHWYQQKPGQAPRLLIYDTSNLASGTPARFSGSGSGTSYSLTISSLEPEDFAVYYCHQRNSYPWTFGQGTKVEIK
notes: as for B2
As for B6, the binding result in test [4] and in test [5] was “binds” in each case.

B7: H8L5 (antibody, human IgG1, V domains shown)
VH: QVQLVESGGGVVQPGRSLRLSCAASGYSFTGYTMNWVRQAPGNGLEWVARINPHNGGTDYNQKFKDRFTISRDNSKNTLYLQMNSLRAEDTAVYYCARGYYYYSLDYWGQGTTVTVSS
VL: EIVLTQSPATLSLSPGERATLSCSASSSIRYIHWYQQKPGQAPRRWIYDTSNLASGTPARFSGSGSGTSYSLTISSLEPEDFAVYYCQQRNSYPWTFGQGTKVEIK
notes: as for B2
With B7, the binding result in test [4] and in test [5] was “binds” in each case.

B8: H6L5 (antibody, human IgG1, V domains shown)
VH: EVQLVQSGAEVKKPGESLKISCKGSGYSFTGYTMNWVRQMPGKGLEWMGRINPHNGGTDYNQKFKDQVTISADKSISTAYLQWSSLKASDTAMYYCARGYYYYSLDYWGQGTLVTVSS
VL: EIVLTQSPATLSLSPGERATLSCSASSSIRYIHWYQQKPGQAPRRWIYDTSNLASGTPARFSGSGSGTSYSLTISSLEPEDFAVYYCQQRNSYPWTFGQGTKVEIK
notes: as for B2
For B8, the binding result in test [4] and in test [5] was “binds” throughout.

B9: H6L9 (antibody, human IgG1, V domains shown)
VH: EVQLVQSGAEVKKPGESLKISCKGSGYSFTGYTMNWVRQMPGKGLEWMGRINPHNGGTDYNQKFKDQVTISADKSISTAYLQWSSLKASDTAMYYCARGYYYYSLDYWGQGTLVTVSS
VL: EIVLTQSPATLSLSPGERATLSCSASSSIRYIHWYQQKPGQAPRRWIYDTSNLASGTPARFSGSGSGTDFTLTISSLEPEDFAVYYCHQRNSYPWTFGQGTKVEIK
notes: as for B2
In the case of B9, the binding result in test [1] and in test [3] was “binds” each time. Besides, in test [2], the “EC50 (read off the curve)” value was ~0.03 µg/mL.

B10: H6L10 (antibody, human IgG1, V domains shown)
VH: EVQLVQSGAEVKKPGESLKISCKGSGYSFTGYTMNWVRQMPGKGLEWMGRINPHNGGTDYNQKFKDQVTISADKSISTAYLQWSSLKASDTAMYYCARGYYYYSLDYWGQGTLVTVSS
VL: EIVLTQSPDFQSVTPKEKVTITCSASSSIRYIHWYQQRPDQSPKRWIYDTSNLASGVPSRFSGSGSGTDFTLTINSLEAEDAATYYCHQRNSYPWTFGQGTKVEIK
notes: as for B2
In the case of B10, the binding result in test [4] and in test [5] was “binds” each time.

B11: H6L12 (antibody, human IgG1, V domains shown)
VH: EVQLVQSGAEVKKPGESLKISCKGSGYSFTGYTMNWVRQMPGKGLEWMGRINPHNGGTDYNQKFKDQVTISADKSISTAYLQWSSLKASDTAMYYCARGYYYYSLDYWGQGTLVTVSS
VL: EIVLTQSPDFQSVTPKEKVTITCSASSSIRYIHWYQQRPDQSPKLLIYDTSNLASGVPSRFSGSGSGTSYSLTINSLEAEDAATYYCHQRNSYPWTFGQGTKVEIK
notes: as for B2
With B11, the binding result in test [4] and in test [5] was “binds” throughout.

B12: H6L6 (antibody, human IgG1, V domains shown)
VH: EVQLVQSGAEVKKPGESLKISCKGSGYSFTGYTMNWVRQMPGKGLEWMGRINPHNGGTDYNQKFKDQVTISADKSISTAYLQWSSLKASDTAMYYCARGYYYYSLDYWGQGTLVTVSS
VL: EIVLTQSPDFQSVTPKEKVTITCSASSSIRYIHWYQQRPDQSPKRWIYDTSNLASGVPSRFSGSGSGTSYSLTINSLEAEDAATYYCQQRNSYPWTFGQGTKVEIK
notes: as for B2
B12: the binding result in test [4] and in test [5] was “binds” each time.

B13: H8L8 (antibody, human IgG1, V domains shown)
VH: QVQLVESGGGVVQPGRSLRLSCAASGYSFTGYTMNWVRQAPGNGLEWVARINPHNGGTDYNQKFKDRFTISRDNSKNTLYLQMNSLRAEDTAVYYCARGYYYYSLDYWGQGTTVTVSS
VL: EIVLTQSPDFQSVTPKEKVTITCSASSSIRYIHWYQQRPDQSPKRWIYDTSNLASGVPSRFSGSGSGTSYSLTINSLEAEDAATYYCHQRNSYPWTFGQGTKVEIK
notes: as for B2
Regarding B13, the binding result in test [4] and in test [5] was “binds” in each case.

B14: H8L6 (antibody, human IgG1, V domains shown)
VH: QVQLVESGGGVVQPGRSLRLSCAASGYSFTGYTMNWVRQAPGNGLEWVARINPHNGGTDYNQKFKDRFTISRDNSKNTLYLQMNSLRAEDTAVYYCARGYYYYSLDYWGQGTTVTVSS
VL: EIVLTQSPDFQSVTPKEKVTITCSASSSIRYIHWYQQRPDQSPKRWIYDTSNLASGVPSRFSGSGSGTSYSLTINSLEAEDAATYYCQQRNSYPWTFGQGTKVEIK
notes: as for B2
B14: the binding result in test [4] and in test [5] was “binds” each time.

B15: H8L10 (antibody, human IgG1, V domains shown)
VH: QVQLVESGGGVVQPGRSLRLSCAASGYSFTGYTMNWVRQAPGNGLEWVARINPHNGGTDYNQKFKDRFTISRDNSKNTLYLQMNSLRAEDTAVYYCARGYYYYSLDYWGQGTTVTVSS
VL: EIVLTQSPDFQSVTPKEKVTITCSASSSIRYIHWYQQRPDQSPKRWIYDTSNLASGVPSRFSGSGSGTDFTLTINSLEAEDAATYYCHQRNSYPWTFGQGTKVEIK
notes: as for B2
In the case of B15, the binding result in test [1] and in test [3] was “binds” throughout. The “EC50 (read off the curve)” value in test [2] was ~0.04 µg/mL.
